Target: feline FcRn complex (FcRn-α subunit and β-microglobulin), biotin labeled (feline)
Test: SPR, pH 6

Row | Kd [nM] | Binder
1 | 10.5 | feline IgG1a S252Y/D312P (antibody, part only; not given: Variable domains, not shown: another chain or arm of the molecule; small tags and cut ends) constant: ASTTAPSVFPLAPSCGTTSGATVALACLVLGYFPEPVTVSWNSGALTSGVHTFPAVLQASGLYSLSSMVTVPSSRWLSDTFTCNVAHPPSNTKVDKTVRKTDHPPGPKPCDCPKCPPPEMLGGPSIFIFPPKPKDTLYISRTPEVTCLVVDLGPDDSDVQITWFVDNTQVYTAKTSPREEQFNSTYRVVSVLPILHQPWLKGKEFKCKVNSKSLPSPIERTISKAKGQPHEPQVYVLPPAQEELSRNKVSVTCLIKSFHPPDIAVEWEITGQPEPENNYRTTPPQLDSDGTYFVYSKLSVDRSHWQRGNTYTCSVSHEALHSHHTQKSLTQSPGK
2 | 4.77 | feline IgG1a D401R (antibody, part only; not given: Variable domains, not shown: another chain or arm of the molecule) constant: ASTTAPSVFPLAPSCGTTSGATVALACLVLGYFPEPVTVSWNSGALTSGVHTFPAVLQASGLYSLSSMVTVPSSRWLSDTFTCNVAHPPSNTKVDKTVRKTDHPPGPKPCDCPKCPPPEMLGGPSIFIFPPKPKDTLSISRTPEVTCLVVDLGPDDSDVQITWFVDNTQVYTAKTSPREEQFNSTYRVVSVLPILHQDWLKGKEFKCKVNSKSLPSPIERTISKAKGQPHEPQVYVLPPAQEELSRNKVSVTCLIKSFHPPDIAVEWEITGQPEPENNYRTTPPQLDSRGTYFVYSKLSVDRSHWQRGNTYTCSVSHEALHSHHTQKSLTQSPGK
3 | 4.49 | feline IgG1a S434A (antibody, part only; not given: Variable domains, not shown: another chain or arm of the molecule) constant: ASTTAPSVFPLAPSCGTTSGATVALACLVLGYFPEPVTVSWNSGALTSGVHTFPAVLQASGLYSLSSMVTVPSSRWLSDTFTCNVAHPPSNTKVDKTVRKTDHPPGPKPCDCPKCPPPEMLGGPSIFIFPPKPKDTLSISRTPEVTCLVVDLGPDDSDVQITWFVDNTQVYTAKTSPREEQFNSTYRVVSVLPILHQDWLKGKEFKCKVNSKSLPSPIERTISKAKGQPHEPQVYVLPPAQEELSRNKVSVTCLIKSFHPPDIAVEWEITGQPEPENNYRTTPPQLDSDGTYFVYSKLSVDRSHWQRGNTYTCSVSHEALHAHHTQKSLTQSPGK
4 | 11.8 | feline IgG1a S434C (antibody, part only; not given: Variable domains, not shown: another chain or arm of the molecule) constant: ASTTAPSVFPLAPSCGTTSGATVALACLVLGYFPEPVTVSWNSGALTSGVHTFPAVLQASGLYSLSSMVTVPSSRWLSDTFTCNVAHPPSNTKVDKTVRKTDHPPGPKPCDCPKCPPPEMLGGPSIFIFPPKPKDTLSISRTPEVTCLVVDLGPDDSDVQITWFVDNTQVYTAKTSPREEQFNSTYRVVSVLPILHQDWLKGKEFKCKVNSKSLPSPIERTISKAKGQPHEPQVYVLPPAQEELSRNKVSVTCLIKSFHPPDIAVEWEITGQPEPENNYRTTPPQLDSDGTYFVYSKLSVDRSHWQRGNTYTCSVSHEALHCHHTQKSLTQSPGK

More lines, now with the values behind:

Row | Binder | Kd [nM]
5 | feline IgG1a D399T (antibody, part only; not given: Variable domains, not shown: another chain or arm of the molecule) constant: ASTTAPSVFPLAPSCGTTSGATVALACLVLGYFPEPVTVSWNSGALTSGVHTFPAVLQASGLYSLSSMVTVPSSRWLSDTFTCNVAHPPSNTKVDKTVRKTDHPPGPKPCDCPKCPPPEMLGGPSIFIFPPKPKDTLSISRTPEVTCLVVDLGPDDSDVQITWFVDNTQVYTAKTSPREEQFNSTYRVVSVLPILHQDWLKGKEFKCKVNSKSLPSPIERTISKAKGQPHEPQVYVLPPAQEELSRNKVSVTCLIKSFHPPDIAVEWEITGQPEPENNYRTTPPQLTSDGTYFVYSKLSVDRSHWQRGNTYTCSVSHEALHSHHTQKSLTQSPGK | 6.75
6 | feline IgG1a D312H (antibody, part only; not given: Variable domains, not shown: another chain or arm of the molecule; small tags and cut ends) constant: ASTTAPSVFPLAPSCGTTSGATVALACLVLGYFPEPVTVSWNSGALTSGVHTFPAVLQASGLYSLSSMVTVPSSRWLSDTFTCNVAHPPSNTKVDKTVRKTDHPPGPKPCDCPKCPPPEMLGGPSIFIFPPKPKDTLSISRTPEVTCLVVDLGPDDSDVQITWFVDNTQVYTAKTSPREEQFNSTYRVVSVLPILHQHWLKGKEFKCKVNSKSLPSPIERTISKAKGQPHEPQVYVLPPAQEELSRNKVSVTCLIKSFHPPDIAVEWEITGQPEPENNYRTTPPQLDSDGTYFVYSKLSVDRSHWQRGNTYTCSVSHEALHSHHTQKSLTQSPGK | 7.33

From patent publication US20240400708A1
